In this experiment the target is mouse MOCCI^FLAG (Modulator of cytochrome C oxidase during Inflammation, FLAG-tagged) (mouse). Kind of experiment: co-IP; anti-FLAG M2 beads on total mouse heart mitochondria (AAV-MOCCI; AAV-GFP as negative control) solubilised with 1% digitonin in IP buffer (50 mM HEPES-KOH, 150 mM NaCl, 1 mM EDTA, pH 7.4), 4 °C; elution with 3X FLAG peptide; immunoblotting.

Consider “MTCO-1, the catalytic subunit of CIV (cytochrome C oxidase) (from UniProt P00397 1-514) (natural protein)”, for which the enrichment in the anti-FLAG immunoprecipitate is 231%.

(Values after paper PMC8035321.)
